Molecular target: T1, MYB46-GFP fusion
T1 chain: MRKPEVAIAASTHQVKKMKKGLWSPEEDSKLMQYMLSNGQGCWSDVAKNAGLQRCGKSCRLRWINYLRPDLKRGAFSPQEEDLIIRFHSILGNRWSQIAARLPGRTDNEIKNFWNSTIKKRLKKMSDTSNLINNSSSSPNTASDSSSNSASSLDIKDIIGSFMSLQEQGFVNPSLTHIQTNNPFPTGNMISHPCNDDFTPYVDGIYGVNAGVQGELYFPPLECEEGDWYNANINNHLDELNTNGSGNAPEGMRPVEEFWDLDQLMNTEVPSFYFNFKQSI

B1: CAMPK6-HA (hemagglutinin conjugated CAMPK6) (protein)
chain: MDGGSGQPAADTEMTEAPGGFPAAAPSPQMPGIENIPATLSHGGRFIQYNIFGNIFEVTAKYKPPIMPIGKGAYGIVCSAMNSETNESVAIKKIANAFDNKIDAKRTLREIKLLRHMDHENIVAIRDIIPPPLRNAFNDVYIAYELMDTDLHQIIRSNQALSEEHCQYFLYQILRGLKYIHSANVLHRDLKPSNLLLNANCDLKICDFGLARVTSESGFMTAYVVTRWYRAPELLLNSSDYTAAIDVWSVGCIFMELMDRKPLFPGRDHVHQLRLLMELIGTPSEEELEFLNENAKRYIRQLPPYPRQSITDKFPTVHPLAIDLIEKMLTFDPRRRITVLDALAHPYLNSLHDISDEPECTIPFNFDFENHALSEEQMKELIYREALAFNPEYQQ
Q: B1 was tested. Which “immunocomplex kinase assay (phosphorylation of MYB46)” value did it give?
A: CAMPK6 directly phosphorylates MYB46

From patent US20220340924
